{"source": "paper PMC11295148", "assay_in_all_cases": "purified protein", "key": {"purified protein [1]": {"substrate": "O=C(O)c1cc(/N=N/c2ccc(S(=O)(=O)Nc3ccccn3)cc2)ccc1O", "conditions": "40 μM NADH, 50 mM MOPS pH 7.2, 22 °C"}, "purified protein [2]": {"substrate": "Nc1ccc(N=Nc2ccccc2)c(N)n1", "type": "biochemical, Anaerotignum lactatifermentans", "conditions": "400 μM NADH, 50 mM MOPS pH 7.2, 22 °C"}, "purified protein [3]": {"substrate": "CN(C)c1ccc(N=Nc2ccccc2C(=O)O)cc1", "type": "biochemical, Anaerotignum lactatifermentans", "conditions": "400 μM NADH, 50 mM MOPS pH 7.2, 22 °C"}, "purified protein [4]": {"substrate": "CCN(CC)c1ccc(N=Nc2ccccc2C(=O)O)cc1", "type": "biochemical, Anaerotignum lactatifermentans", "conditions": "400 μM NADH, 50 mM MOPS pH 7.2, 22 °C"}}, "data": [{"protein": "AlAzoR (Anaerotignum lactatifermentans DSM 14214) (protein) MKKVLFVNCCIRREGSRTQKLADHFLEGLRKKEGYEIEELCLMDESLSYFTDGFFEQRERLLADKQFDHPRFRYAHQFAEADKIVIAAPFWDLSFPALLKVYIENLCVEGITFGCNETGCFGTCKADQLIYLTTRGGFYNDNPMEMGSRYIWAMCDFFGIPRYDCVAGDGLDTGVRPVEEILEDAKAEIDRLLAEF", "values": [{"measurement": "Km", "setting": "purified protein [1]", "result": "8 ± 1", "unit": "µM"}, {"measurement": "kcat", "setting": "purified protein [1]", "result": 0.05, "unit": "s⁻¹"}, {"measurement": "kcat/Km", "setting": "purified protein [1]", "result": 6100, "unit": "M⁻¹ s⁻¹"}, {"measurement": "Km", "setting": "purified protein [2]", "result": "23 ± 3", "unit": "µM"}, {"measurement": "kcat", "setting": "purified protein [2]", "result": "0.138 ± 0.008", "unit": "s⁻¹"}, {"measurement": "kcat/Km", "setting": "purified protein [2]", "result": "6000 ± 700", "unit": "M⁻¹ s⁻¹"}, {"measurement": "Km", "setting": "purified protein [3]", "result": "17 ± 3", "unit": "µM"}, {"measurement": "kcat", "setting": "purified protein [3]", "result": "0.49 ± 0.03", "unit": "s⁻¹"}, {"measurement": "kcat/Km", "setting": "purified protein [3]", "result": "28000 ± 4000", "unit": "M⁻¹ s⁻¹"}, {"measurement": "Km", "setting": "purified protein [4]", "result": "30. ± 2", "unit": "μM"}, {"measurement": "kcat", "setting": "purified protein [4]", "result": "0.78 ± 0.02", "unit": "s⁻¹"}, {"measurement": "kcat/Km", "setting": "purified protein [4]", "result": "26000 ± 2000", "unit": "M⁻¹ s⁻¹"}]}]}
